A short description of this data set: protease stability score; higher = more stable; yeast display proteolysis, trypsin and chymotrypsin.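 Also: log10 excess protease needed over predicted unfolded state with 0 meaning unfolded.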
As to “DTDKTARQLVRDLEKALQTGDPDKLAKLFDKDARINVGEKDYQGRERMQRNWRRDNTRIDHVSVDLKDMKIQGNKISVDMTIKFKVDGHHNSRVVVLLFDNDNGTVRAVENQQK”, the protease stability score came out at 0.16.

“DDDKIRKDAETFVKILETGNQERAQRMFDENAHMRIGDKTYHGRESVHKAIKTIRDEVDHVQVRHIDIQGEEVIIQMRFDHNGNQDIMTINLVIKNGRIKSATYTRP”: the protease stability score came out at 0.537.

Take “DEEKRAKTIVKKIHKAWTHNDERTFKNMADPNAEVRVGDQTYHGMEQWQREQAKRAQNYDHVDFDVKNVEVKGEKVDILMEFQMNDNGKNDTERRVVVVVDVNGQDRIRSVHKG”: the protease stability score was -0.256.

Turning to “DESDVKRAQDMVQNEQDGNEEEFDKLLDENVHFNVGDKRVNGRQQYLREVKKKRDQIRFSIKIDSVRARNGEATIDASARMVVNGQPKTYKFVIHVVQHNGDVRHVRISVPEEDVKRLKS”, the protease stability score is 0.212.

Turning to “DESVLEMAERIIEAFNNGDPERAVNQADPNVKITVGDKSITGREDLRRELEKQLKEQEQHIQVLRVTDHNGQAQMDIRMTSEKNGNPDHRRATVQFHATNGKLQTMRVDQRG”, the protease stability score is -0.599.

For the sequence “DDDEVRKLVHNLERGNFDDFVRQADPNAKVTIGNKTYHGREDIKSAYKKLKDQVDHLEVKRVRHHNGRLNVERIVVVNGRNIRYHVRLTIHNGRIKHIRYQATNEEQQKWMDEVIK”, the protease stability score came to 0.559.

In turn, “DEDAQKQVEKMLQAVREGDDRQIKRLFDPNAEINVGDKHVTGREQATKEMSKRKKEMDIDIKIEEVQVKGDRVELKAVVLENKNGDPQTFHVRAVYHAHNGKIRTNNVEKDG” returned a protease stability score of -0.074.

For “DDDLTRKVEKFMRNVQKGNEEELKKMMDPNVHAEVGDKVYHGREDAVEKRVTHYHEQNWRYEDIDLKVEGDRAKAKVVRVVNINGKPIRFEFSVNMRFHNGKITRINNDLPEEVLHKLKR”, the protease stability score came out at 0.118.

“DSEEAKKADEVVQTNDEDRLRDLLDEDARIIIGEFTFHGRHKAEEAVKRFQDAVDHIEIEDYDVQGNEITVVFTVSFNGKKMRFKASFHLRNGRLKHMSMTFTDPDQEREMSNLLR”: the protease stability score was found to be 0.56.

The sequence “DEDLFRRLSELMHAVTNGDEEELVKQADKDARIQYGDKVFHGMDEAARELVRQQKEIRQSWEIKSWDHQGDKVRVTIKNSQDHDGRPHSNRIDVEVKQRNGKVTTARFQTHP” registered a protease stability score of 0.148.

Regarding “DEEKNTRLIKEFMEALRTGDEHQVRRLMDPNAKVVYGDTRFHGREEAAKFIVEWASRIDHIDVKDMRVNGNRASLTFVANFDGRNHDVKIDFTLQDGKFRQVNFTSN”, the protease stability score was determined as 1.09.

“DEEEHFRKWVHEFIKILETGDPDQAKKMMDPNVRETVGDKSLHGHDQMVREIEKRRESIDHVNFDIKDYRIQGNHFVLDLKVNEVHNGKEITRRLEVDASTQGDKLYVNEIRLS” came in with a protease stability score of -0.146.

The sequence “DEHELREILDKANEAWKRNDPDEMVKQADKDVEVKIGDKDFHGREEAHEAMKELHDRADHISIRDYDASGNKARIHMYIVVNGRRVDFVVIIVVRNGRIQKIELNVRDEKAKSNLKQ” had a protease stability score of 1.09.

Sequence “DDDAVRQAQENLKAIEDGDEDKVRNLMDPNAQVNIGDKTIHGMEEFMRQMKRKLDEIRVDYEDIKIDKQGDKARLDATWRQDDNGEPHSMKVDVDVKFRNGKIVDWQQQYDG” registered a protease stability score of -0.149.

Sequence “DDTAIRIFEELQKAVENGDEREVQENLDEDAKIEYGNRTLHGREKAAKDYKRMHDQMEFTYDMKHFTVQGDKARLKVEYKATVNGKPYSDSVDVEVKIKNGKIKYIRFQFDEHKQRERDS” returned a protease stability score of 0.894.

Turning to “DEELQDRFRRMIRIREEGDEQKLNEQVDPNVRLRVGDKEIKGREQLEEDQKRKNKQMRIRIKHLEVEAQGNKVRVSIHMTMRVNGRPFHFEFTANYTYHNGKLKHADVNIDPDFVREVHQ”, the protease stability score was found to be 0.027.

“DQRDLEHVNHVLQTGDPDQFRDLVDPNARIRVGDKTIHGRENVLTKYRRLMEQADHLQIDSIRNHGEFVVFDFRMTVNGRQVDAEVNIHVKDGQIKEIEIRFRSEEQEDRWRKQAD” yielded a protease stability score of 1.42.

For “DEELAHKIAKLMETNNFQDMAKQADENATAVVGDFKVRGRSQLETLMQRFLDQIDHFEVKSWHIDNGNVHVNFVASVNGRTIEAQVIIHVSNGRIKSIELRVRNQDVQKHLRNMLS”, the protease stability score came out at 1.05.

Sequence “DTEQLKVFKEFVDAHRHNNPEELKKQMDKDVHFRVGNKQIHGREKAAHYWETIMHEIRVEWKSIVMKDSNGKAKAKFRFVENVNGKPQENTYDLEFSARNGRINSITMRFDEDQQRHHKK” returned a protease stability score of 0.345.

For “DERDLKEALDLVKTGDFTRIARMADENVKLKVGDKDVHGREDAKRLMSQLEKQVDHYEIDDVTLEGNSASIDAHFNVNGNRIRFVVVIHVHNGKIKHFTIHVRDEEDKDKLRKDDG”, the protease stability score was determined as 0.799.

“DEKDKDVADELRKAYHTGDHNRLREMVDKDVKFQVGDQDYHGRETFMKLNHTERNEIRIEIQSIRVHVHNGRVTVKQVVVREHNGRPTRMQQVLTIDAHNGKIKKMFIKDDQ” yielded a protease stability score of 0.069.

Sequence “DEDKKKHDLIHTFLTLQHNGDFKQLARMFDPNAKVRVGDKDIRGREQIEKMFEKVRESVDRVSVSLTHMDNHGDKVRMEARVTQHVNGRNHDFTITITFRQVGDKVRASHQSVS” displayed a protease stability score of 0.584.

For the sequence “DEDKHVHRAFEEMLTVMEKGNEDEVKRLVDKDVRVHIGDKSYRGRTNVAKQIVDWARRADHIEIEVTEIDIQGDQVTMRATAHATHNGKTQSYDFTIILRIENGRAVIHSWHVS”, the protease stability score was determined as 0.923.

The sequence “DEEDQERLEDFLRALKKGDEERLKELVDPNAQFEIGDTTYHGREHFLHTMRRKNEEIRVERDFHTVRAENGHVEMHFHAQENHNGRPRTFTAHATAVIHNGRLKSFVLKVDG” gave a protease stability score of -0.026.

Turning to “DEEEAHKVKDVVENGDPDTLQNMADKDATARYGDKQVHGREQVRTAIKLWMDHVDHIDIRNIHVEGNKVNVDAVFNVNGRNLNVRFRMEVHNGKIKSFELQATDERIRETLERILS”, the protease stability score amounted to 1.02.

Turning to “EEEDAKRFKHLNERNDFTSLAKQVDEDATLRVGDKEIHGRERVTEFLEKAERAIDHVDIDSVDWSGDHVQFDAKYQVNGTTHHVIVRFRIHNGRIKYMQWDFTDDEVARRFLDNVQ”, the protease stability score worked out at 0.573.

Sequence “DEEKYKRLFRKVFEAAIKGDEEKVKKFGKPNVKYEYADKQYEGPEAMKHVVDLAKKVGAEVKTREQEVKGNTAKAKFQYKLGDRTVQTTVEVKYEGDKVKEARVKLTDEVKKILHQG” gave a protease stability score of 0.065.

On to “DEKEQKENAKKMADAIERGDPDKLSELMDENAKVTVGDKTIHGRRQAHEWLKEFRDQADHVEIKEFTVNGNRVIIHVKVRHNGSESERVMTVSWHNGKVKSASFRSN”, for which the protease stability score was found to be 0.63.

Consider “DEEEAKKFMETWQKAVEKGDTKTARELYDPNVEWIDYSQRHQGVEMVVKQMQQVKKKGVEFQIRKAKVEGNEVEVVYDANIGNETATFTVQFRAEGGRVKEVRVKMDEKAKKIKREG”, for which the protease stability score was 0.064.

In turn, “DEEKLRRMAERLIRAFDQGDRKRMEDNMDPNVELQVGETVFHGREQVTKALYELRKQVDHFELKSVDIKGEKVVVHVILNINGKHVEMNWVFEAHDGKVKEIKLNPDNQREAET” gave a protease stability score of 2.15.

For the sequence “EDELLHILKEFIQAVNSGDSDKLRELMDPNVKAEYGDKEIHGREEIARQWRQIRHEIKFSWKHLHFEVKGDKLRVDFTVVMDVNGKPKHYRAVLYMKLKNGRITTLHVKMPEEEAKELNK”, the protease stability score was determined as 0.363.

“DEKKAEELAKKAFKYIENGDREEAQKMLKDNVEYHYANTTYHGKDAAKFVVDVVQKVGVEVKVQEQEVRGNTVRARFQYKNGDTEVETEVEVTYEGDRVKKAEVKLSEEVMKLVHQG” yielded a protease stability score of 0.566.

In the case of “DEEATKELREWLHNRTKNNEEELHKYADPNAKFVIGDKTYHGMEEAVESQVHKDKHMNIHIESIHMDADGEHVRASEVVTFEVNGKPFRYSFRYNVTMSNGRLKSQSVRVDERDEEQEKQ”, the protease stability score is -0.325.
